Where a chain is given by its changes, count along the chain named. Names and notes keep the numbering of the source.

Test [1] concerns the target T1, cynomolgus monkey TLR4 expressed on stably transfected CHO-K1 cells (cynomolgus monkey, UniProt Q9TSP2 24-826 (Papio anubis entry)).
T1 construct: Transfected alone; also called CHO cells expressing the cynomolgus monkey TLR4
T1 chain: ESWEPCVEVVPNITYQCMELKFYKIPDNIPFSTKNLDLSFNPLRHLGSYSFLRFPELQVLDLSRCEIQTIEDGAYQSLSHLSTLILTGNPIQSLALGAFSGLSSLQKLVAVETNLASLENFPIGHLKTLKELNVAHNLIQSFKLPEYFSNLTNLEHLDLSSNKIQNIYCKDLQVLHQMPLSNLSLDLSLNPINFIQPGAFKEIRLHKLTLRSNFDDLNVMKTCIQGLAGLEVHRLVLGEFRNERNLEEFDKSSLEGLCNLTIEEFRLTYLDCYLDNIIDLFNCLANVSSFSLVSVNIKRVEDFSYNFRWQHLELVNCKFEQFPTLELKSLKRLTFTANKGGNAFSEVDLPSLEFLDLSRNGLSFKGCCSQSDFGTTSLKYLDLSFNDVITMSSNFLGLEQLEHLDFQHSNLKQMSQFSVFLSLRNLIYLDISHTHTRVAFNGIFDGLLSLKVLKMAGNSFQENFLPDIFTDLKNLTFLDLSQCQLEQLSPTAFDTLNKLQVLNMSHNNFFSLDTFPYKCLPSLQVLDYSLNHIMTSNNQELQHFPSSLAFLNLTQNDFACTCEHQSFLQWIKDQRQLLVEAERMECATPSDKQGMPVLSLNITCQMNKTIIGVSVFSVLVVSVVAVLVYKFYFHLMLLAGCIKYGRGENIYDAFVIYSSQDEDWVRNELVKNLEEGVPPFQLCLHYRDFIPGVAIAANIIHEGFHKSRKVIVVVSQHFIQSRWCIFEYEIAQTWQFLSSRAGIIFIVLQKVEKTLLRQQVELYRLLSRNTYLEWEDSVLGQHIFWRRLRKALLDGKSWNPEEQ
Nature of the test: summary table of species specificity (flow cytometry results). On the procedure:
(§1) 10⁵ CHO cells or CHO cells expressing the cynomolgus monkey TLR4 were incubated in phosphate-buffered saline, 2% bovine serum albumin with different concentrations of purified antibodies selected by FMAT (1A1, 1A6, 1B12, 1C7, 1C10, 1C12, 1D10, 1E11, 1G12) with 15C1 as control. Cells were washed in phosphate-buffered saline, 2% bovine serum albumin and incubated in Alexa Fluor® 647 goat anti human IgG (H+L) (1:200; Invitrogen). Cells were analyzed using a FACS calibur cytometer (BD Biosciences).
Similar experiments were conducted with CHO cells or CHO cells expressing the human TLR4/MD2 complex. […] 1C12 Mab was also able to bind to human TLR4 but with a lower potency compared to 1E11 and 15C1 Mabs.

Test [2] concerns the target T2, soluble histidine-tagged form of human TLR4/MD2 complex (human, UniProt Q9Y6Y9 19-160). The experiment in a line: competitive ELISA; coated 15C1 as competitor, soluble His-tagged human TLR4/MD2, Penta-His-HRP. The method, then: (§2) The VH and VL cDNA sequences in their appropriate expression vectors were transfected into mammalian cells using the Fugene 6 Transfection Reagent (Roche, Basel, Switzerland). Briefly, Peak cells were cultured in 6-well plates at a concentration of 6×10⁵ cells per well in 2 mL culture media containing fetal bovine serum. The expression vectors, encoding the candidate VH and VL sequences, were co-transfected into the cells using the Fugene 6 Transfection Reagent according to manufacturer's instructions. One day following transfection, the culture media was aspirated, and 3 mL of fresh serum-free media was added to cells and cultured for three days at 37° C. Following three days culture period, the supernatant was harvested for IgG purified on protein G-Sepharose 4B fast flow columns (Sigma, St. Louis, Mo.) according to manufacturer's instructions. Briefly, supernatants from transfected cells were incubated overnight at 4° C. with ImmunoPure (G) IgG binding buffer (Pierce, Rockford Ill.). Samples were then passed over Protein G-Sepharose 4B fast flow columns and the IgG consequently purified using elution buffer. The eluted IgG fraction was then dialyzed against PBS and the IgG content quantified by absorption at 280 nm. Purity and IgG integrity were verified by SDS-PAGE. Relative binding potency of 1E11 variants was assessed by competitive ELISA. Briefly, 15C1 antibody was coated overnight in a 96-well Maxisorp plate and then blocked with PBS-BSA. The 15C1 reference antibody and affinity matured variants of 1E11 were added to the plate at a fixed concentration and a 3.5-fold serial dilution of the samples was performed. Then, soluble histidine-tagged form of human TLR4/MD2 complex was added to the plate at a fixed concentration. After incubation one hour at 37° C., the plate was washed and a solution of Penta-His-HRP antibody was distributed, this step was followed by an additional incubation time of one hour at 37° C. Finally, the plate was washed and TMB was added for colorimetric revelation, the enzymatic reaction is stopped by H₂SO₄ solution. The results were determined according to the absorbance at 450 nm. The relative binding potency was calculated by dividing the reference EC₅₀ with affinity matured variants EC₅₀ (Table 8).

Test [3] addresses human TLR4 in human whole blood (human). The experiment in a line: cell-based or functional assay.
For test [4], the target named is T1, cynomolgus monkey TLR4 expressed on …. Nature of the test: flow cytometry; purified IgG on CHO cells expressing cynomolgus TLR4. On the procedure: as §1
The target of test [5] is T3, cynomolgus monkey TLR4 in cynomolgus monkey whole blood (cynomolgus monkey, UniProt Q9TSP2 24-826 (Papio anubis entry)).
T3 chain: T1 chain
The experiment in a line: cell-based or functional assay.

Test [6] addresses T2, soluble histidine-tagged form of human …. Nature of the test: competitive ELISA; 15C1 reference EC50 divided by variant EC50. On the procedure:
as §2

Test [7] shares this target. Nature of the test: competitive ELISA, as retold in Example 9 (Table 8 prints 39 for this clone). On the procedure:
Briefly, supernatants from transfected cells were incubated overnight at 4° C. with ImmunoPure (G) IgG binding buffer (Pierce, Rockford Ill.). Samples were then passed over Protein G-Sepharose 4B fast flow columns and the IgG consequently purified using elution buffer. The eluted IgG fraction was then dialyzed against PBS and the IgG content quantified by absorption at 280 nm. Purity and IgG integrity were verified by SDS-PAGE. Relative binding potency of 1E11 variants was assessed by competitive ELISA. Briefly, 15C1 antibody was coated overnight in a 96-well Maxisorp plate and then blocked with PBS-BSA. The 15C1 reference antibody and affinity matured variants of 1E11 were added to the plate at a fixed concentration and a 3.5-fold serial dilution of the samples was performed. Then, soluble histidine-tagged form of human TLR4/MD2 complex was added to the plate at a fixed concentration. After incubation one hour at 37° C., the plate was washed and a solution of Penta-His-HRP antibody was distributed, this step was followed by an additional incubation time of one hour at 37° C. Finally, the plate was washed and TMB was added for colorimetric revelation, the enzymatic reaction is stopped by H₂SO₄ solution. The results were determined according to the absorbance at 450 nm. The relative binding potency was calculated by dividing the reference EC₅₀ with affinity matured variants EC₅₀ (Table 8). […]

The target in test [8] is T1, cynomolgus monkey TLR4 expressed on …. Nature of the test: summary grade (species binding potential); assay not given.
In test [9] the target is T2, soluble histidine-tagged form of human …. The experiment in a line: competitive ELISA; lower end of the range, tied to 1E11.C4 by Table 8 (2.5 there). The method, then: The VH and VL cDNA sequences in their appropriate expression vectors were transfected into mammalian cells using the Fugene 6 Transfection Reagent (Roche, Basel, Switzerland). Briefly, Peak cells were cultured in 6-well plates at a concentration of 6×10⁵ cells per well in 2 mL culture media containing fetal bovine serum. The expression vectors, encoding the candidate VH and VL sequences, were co-transfected into the cells using the Fugene 6 Transfection Reagent according to manufacturer's instructions. One day following transfection, the culture media was aspirated, and 3 mL of fresh serum-free media was added to cells and cultured for three days at 37° C. Following three days culture period, the supernatant was harvested for IgG purified on protein G-Sepharose 4B fast flow columns (Sigma, St. Louis, Mo.) according to manufacturer's instructions. Briefly, supernatants from transfected cells were incubated overnight at 4° C. with ImmunoPure (G) IgG binding buffer (Pierce, Rockford Ill.). […] The eluted IgG fraction was then dialyzed against PBS and the IgG content quantified by absorption at 280 nm. […] Relative binding potency of 1E11 variants was assessed by competitive ELISA. […] The results were determined according to the absorbance at 450 nm. The relative binding potency was calculated by dividing the reference EC₅₀ with affinity matured variants EC₅₀ (Table 8).
On the technique in general: ELISA stands for enzyme-linked immunosorbent assay.

T2 sequence (Q9Y6Y9 19-160, one chain of several): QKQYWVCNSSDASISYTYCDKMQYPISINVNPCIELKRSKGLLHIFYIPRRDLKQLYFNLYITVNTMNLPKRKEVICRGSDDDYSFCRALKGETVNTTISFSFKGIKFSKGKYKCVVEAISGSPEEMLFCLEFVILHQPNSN

B1: 1A1 antibody (IgG1) (antibody, V domains shown)
VH: QVQLQESGPGLVKPSDTLSLTCAVSGYSITGGYSWHWIRQPPGKGLEWMGYIHYSGYTDFNPSLKTRITISRDTSKNQFSLKLSSVTAVDTAVYYCARKDSGRLLPYWGQGTLVTVSS
VL: EIVLTQSPDFQSVTPKEKVTITCRASQSISDHLHWYQQKPDQSPKLLIKYASHAISGVPSRFSGSGSGTDFTLTINSLEAEDAATYYCQQGHSFPLTFGGGTKVEIK
notes: also called 1A1 Mab
Turning to B1, in [1], the binding result is “binds”.

B2: humanized anti-TLR4 antibody 15C1 (antibody, V domains shown)
VH: B1 VH with S101P, G102S, R103D, L104A, L105F
VL: B1 VL
notes: also called 15C1 Mab; parental antibody 15C1
On to B2, for which the EC50 (in general, the concentration that produces a half-maximal response) in [2] stood at 0.63 µg/mL. Also, the “IC50, inhibition of IL-6 production in human whole blood assay” value in [3] is roughly 0.22 µg/mL. Moreover, the binding result in test [4] was “no binding”.

B3: 1E11.C2 antibody (IgG1) (antibody, V domains shown)
VH: B1 VH with S28P, T30R, G31F, R103N, L104Y, L105F
VL: B1 VL
With B3, in test [2], the EC50 stood at 0.036 µg/mL. For the same molecule, in [3], the “IC50, inhibition of IL-6 production in human whole blood assay” value stood at 0.07 µg/mL and the “fold better than 15C1 at blocking human TLR4 (human whole blood assay)” value was 3 fold. The “IC50, inhibition of IL-6 production in cynomolgus monkey whole blood assay” value in [5] was roughly 0.5 µg/mL. Further, the “Relative binding potency increase” value in [6] is 17 fold.

B4: 1E11.C2E3 antibody (IgG1) (antibody, V domains shown)
VH: B1 VH with S28P, T30R, G31F, R103N, L104Y, L105F
VL: B1 VL with H92Y, S93D
Turning to B4, the EC50 in [2] is 0.016 µg/mL. For the same molecule, in [3], the “IC50, inhibition of IL-6 production in human whole blood assay” value was 0.05 µg/mL and the “fold better than 15C1 at blocking human TLR4 (human whole blood assay)” value is 5 fold. Moreover, the “increase in binding potency (fold, compared to 15C1)” value in [7] is 40 fold. Besides, the “Relative binding potency increase” value in [6] was found to be 39 fold. For the same molecule, in [8], the binding result is on record as “binds”.

B5: 1E11.C4 antibody (IgG1) (antibody, V domains shown)
VH: B1 VH with Y27F, S28P, T30G, G31Q, R103N, L104Y, L105F
VL: B1 VL
Turning to B5, the EC50 in test [2] is 0.251 µg/mL. For the same molecule, in test [9], the “relative binding potency (fold-increase compared to 15C1)” value was 3 fold. For the same molecule, the “Relative binding potency increase” value in test [6] is 2.5 fold. For the same molecule, the binding result in test [8] was “binds”.

B6: 1D10 antibody (IgG1) (antibody, V domains shown)
VH: B1 VH with R103H, L104N
VL: B1 VL
notes: also called 1D10 Mab
For the molecule B6, in test [1], the binding result was “binds”.

B7: 1C10 antibody (IgG1) (antibody, V domains shown)
VH: B1 VH with R103K, L104N, L105F
VL: B1 VL
notes: also called 1C10 Mab
As to B7, the binding result in test [1] is “binds”.

B8: 1E11 N103D antibody (IgG1) (antibody, V domains shown)
VH: B1 VH with R103D, L104Y, L105F
VL: B1 VL
notes: 1E11 with the N103D mutation in the heavy chain; also called 1E11 N103D Mab
As for B8, the binding result in [1] was “binds”.

B9: 1G12 antibody (IgG1) (antibody, V domains shown)
VH: B1 VH with L104Y, L105W
VL: B1 VL
notes: also called 1G12 Mab
Regarding B9, the binding result in test [1] is listed as “binds”.

B10: 1C7 antibody (IgG1) (antibody, V domains shown)
VH: B1 VH with R103H, L104N, L105Y
VL: B1 VL
notes: also called 1C7 Mab
For the molecule B10, the binding result in test [1] is given as “binds”.

B11: 1A6 antibody (IgG1) (antibody, V domains shown)
VH: B1 VH with R103K, L104W
VL: B1 VL
notes: also called 1A6 Mab
As to B11, the binding result in test [1] is “binds”.

B12: 1B12 antibody (IgG1) (antibody, V domains shown)
VH: B1 VH with R103H, L105M
VL: B1 VL
notes: also called 1B12 Mab
On to B12, for which, in test [1], the binding result is on record as “binds”.

B13: 1C12 antibody (IgG1) (antibody, V domains shown)
VH: B1 VH with R103Q, L105F
VL: B1 VL
notes: also called 1C12 Mab
Regarding B13, in test [1], the binding result is “binds”.

For the origin of these results see patent publication US20130315914A1 (NOVIMMUNE, published 2013).
